Results from PMC3176292, “Mutations in Protein-Binding Hot-Spots on the Hub Protein Smad3 Differentially Affect Its Protein Interactions and Smad3-Regulated Gene Expression” (PLoS ONE, 2011).

T1: Flag-SARA, full length (UniProt O95405 1-1425)
T1 construct: SARA; plasmid pCMV5b-Flag-SARA; also called SARA FL; source: HEK-293, transfected, in lysate
T1 sequence (looked up): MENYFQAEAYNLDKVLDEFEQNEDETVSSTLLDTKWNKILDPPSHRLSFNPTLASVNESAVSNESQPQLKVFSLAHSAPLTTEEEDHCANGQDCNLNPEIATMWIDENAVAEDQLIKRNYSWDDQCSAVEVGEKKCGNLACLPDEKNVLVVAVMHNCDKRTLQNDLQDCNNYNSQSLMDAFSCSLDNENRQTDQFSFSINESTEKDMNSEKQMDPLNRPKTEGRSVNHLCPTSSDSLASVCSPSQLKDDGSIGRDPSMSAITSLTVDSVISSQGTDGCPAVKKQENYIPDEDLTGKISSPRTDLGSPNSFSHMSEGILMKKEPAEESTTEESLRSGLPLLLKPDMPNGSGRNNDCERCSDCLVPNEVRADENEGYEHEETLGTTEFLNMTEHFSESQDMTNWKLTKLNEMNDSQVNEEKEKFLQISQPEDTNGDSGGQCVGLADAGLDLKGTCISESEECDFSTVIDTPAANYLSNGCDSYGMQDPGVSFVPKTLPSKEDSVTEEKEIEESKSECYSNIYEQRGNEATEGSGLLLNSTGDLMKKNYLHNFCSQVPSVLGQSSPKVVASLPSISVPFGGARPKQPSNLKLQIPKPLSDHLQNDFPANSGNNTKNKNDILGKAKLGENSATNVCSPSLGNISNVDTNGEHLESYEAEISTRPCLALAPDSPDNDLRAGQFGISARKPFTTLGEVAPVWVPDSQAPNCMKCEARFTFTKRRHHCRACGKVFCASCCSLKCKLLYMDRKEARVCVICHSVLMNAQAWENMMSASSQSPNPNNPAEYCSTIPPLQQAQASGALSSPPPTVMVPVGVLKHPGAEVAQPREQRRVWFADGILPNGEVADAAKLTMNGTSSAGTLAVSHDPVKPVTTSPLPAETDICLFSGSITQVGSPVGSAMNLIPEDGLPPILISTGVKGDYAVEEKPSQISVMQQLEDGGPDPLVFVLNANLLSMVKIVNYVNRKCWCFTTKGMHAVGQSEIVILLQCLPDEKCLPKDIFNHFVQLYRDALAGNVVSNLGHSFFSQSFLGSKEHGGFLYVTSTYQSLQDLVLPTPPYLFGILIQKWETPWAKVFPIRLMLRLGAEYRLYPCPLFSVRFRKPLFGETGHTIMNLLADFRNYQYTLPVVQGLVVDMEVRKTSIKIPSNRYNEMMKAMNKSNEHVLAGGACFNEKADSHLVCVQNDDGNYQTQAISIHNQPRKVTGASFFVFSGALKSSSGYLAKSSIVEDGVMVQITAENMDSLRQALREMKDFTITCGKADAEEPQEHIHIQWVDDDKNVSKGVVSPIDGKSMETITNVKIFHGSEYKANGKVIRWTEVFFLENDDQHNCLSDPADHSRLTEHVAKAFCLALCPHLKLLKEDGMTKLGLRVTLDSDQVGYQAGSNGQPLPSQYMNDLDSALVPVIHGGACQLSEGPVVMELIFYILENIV

T2: SIP1 Smad-binding domain (amino acids 315–487) on the 3xFlag-thioredoxin scaffold (UniProt Q9R0G7 315-487)
T2 construct: SIP1, amino acids 315–487; amplified from pACT2-SIP1-315-487 (from D. Huylebroeck), which I recall as a mouse clone; cloned into the RsrII site of pCI-3xFLAG-Trx; also called Sip1 315–487; TrxSIP1; source: HEK-293, transfected, in lysate
T2 sequence (looked up): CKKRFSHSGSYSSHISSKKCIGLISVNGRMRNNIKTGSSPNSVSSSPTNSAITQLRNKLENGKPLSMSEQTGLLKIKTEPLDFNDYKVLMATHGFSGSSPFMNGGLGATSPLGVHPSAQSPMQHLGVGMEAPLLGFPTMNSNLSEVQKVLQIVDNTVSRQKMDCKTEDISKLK


Experiments:
[1] = target: T1, Flag-SARA, full length; test: co-IP; LUMIER: Renilla luciferase-Smad3 and Flag-tagged partner co-expressed with constitutively active Alk5 in HEK-293; Flag protein captured from cleared lysate (TNE: 10 mM Tris-HCl pH 7.8, 150 mM NaCl, 1 mM EDTA, 1% Igepal CA-630) on anti-Flag 96-well plates, 2 h at 4 °C; co-precipitated Renilla luciferase activity, TrxGA background subtracted, percent of wild-type Smad3; settings: partners not purified
[2] = target: T2, SIP1 Smad-binding domain (amino acids …); test: as above; settings: partners not purified

Binder	percent binding relative to wild-type Smad3 [1] [%]	percent binding relative to wild-type Smad3 [2] [%]
Renilla luciferase-Smad3 D408H (natural protein, UniProt P84022 1-425, looked up, Smad3; source: HEK-293, transfected together with constitutively active Alk5, in lysate) MSSILPFTPPIVKRLLGWKKGEQNGQEEKWCEKAVKSLVKKLKKTGQLDELEKAITTQNVNTKCITIPRSLDGRLQVSHRKGLPHVIYCRLWRWPDLHSHHELRAMELCEFAFNMKKDEVCVNPYHYQRVETPVLPPVLVPRHTEIPAEFPPLDDYSHSIPENTNFPAGIEPQSNIPETPPPGYLSEDGETSDHQMNHSMDAGSPNLSPNPMSPAHNNLDLQPVTYCEPAFWCSISYYELNQRVGETFHASQPSMTVDGFTDPSNSERFCLGLLSNVNRNAAVELTRRHIGRGVRLYYIGGEVFAECLSDSAIFVQSPNCNQRYGWHPATVCKIPPGCNLKIFNNQEFAALLAQSVNQGFEAVYQLTRMCTIRMSFVKGWGAEYRRQTVTSTPCWIELHLNGPLQWLHKVLTQMGSPSIRCSSVS	168	41
Renilla luciferase-Smad3 R268A (natural protein, UniProt P84022 1-425, looked up, Smad3; source: HEK-293, transfected together with constitutively active Alk5, in lysate) MSSILPFTPPIVKRLLGWKKGEQNGQEEKWCEKAVKSLVKKLKKTGQLDELEKAITTQNVNTKCITIPRSLDGRLQVSHRKGLPHVIYCRLWRWPDLHSHHELRAMELCEFAFNMKKDEVCVNPYHYQRVETPVLPPVLVPRHTEIPAEFPPLDDYSHSIPENTNFPAGIEPQSNIPETPPPGYLSEDGETSDHQMNHSMDAGSPNLSPNPMSPAHNNLDLQPVTYCEPAFWCSISYYELNQRVGETFHASQPSMTVDGFTDPSNSEAFCLGLLSNVNRNAAVELTRRHIGRGVRLYYIGGEVFAECLSDSAIFVQSPNCNQRYGWHPATVCKIPPGCNLKIFNNQEFAALLAQSVNQGFEAVYQLTRMCTIRMSFVKGWGAEYRRQTVTSTPCWIELHLNGPLQWLDKVLTQMGSPSIRCSSVS	159	13
Renilla luciferase-Smad3 R243A (natural protein, UniProt P84022 1-425, looked up, Smad3; source: HEK-293, transfected together with constitutively active Alk5, in lysate) MSSILPFTPPIVKRLLGWKKGEQNGQEEKWCEKAVKSLVKKLKKTGQLDELEKAITTQNVNTKCITIPRSLDGRLQVSHRKGLPHVIYCRLWRWPDLHSHHELRAMELCEFAFNMKKDEVCVNPYHYQRVETPVLPPVLVPRHTEIPAEFPPLDDYSHSIPENTNFPAGIEPQSNIPETPPPGYLSEDGETSDHQMNHSMDAGSPNLSPNPMSPAHNNLDLQPVTYCEPAFWCSISYYELNQAVGETFHASQPSMTVDGFTDPSNSERFCLGLLSNVNRNAAVELTRRHIGRGVRLYYIGGEVFAECLSDSAIFVQSPNCNQRYGWHPATVCKIPPGCNLKIFNNQEFAALLAQSVNQGFEAVYQLTRMCTIRMSFVKGWGAEYRRQTVTSTPCWIELHLNGPLQWLDKVLTQMGSPSIRCSSVS	181	28

Further lines, results first:

percent binding relative to wild-type Smad3 [1] [%]	percent binding relative to wild-type Smad3 [2] [%]	Binder
162	15	Renilla luciferase-Smad3 Y238A (natural protein, UniProt P84022 1-425, looked up, Smad3; source: HEK-293, transfected together with constitutively active Alk5, in lysate) MSSILPFTPPIVKRLLGWKKGEQNGQEEKWCEKAVKSLVKKLKKTGQLDELEKAITTQNVNTKCITIPRSLDGRLQVSHRKGLPHVIYCRLWRWPDLHSHHELRAMELCEFAFNMKKDEVCVNPYHYQRVETPVLPPVLVPRHTEIPAEFPPLDDYSHSIPENTNFPAGIEPQSNIPETPPPGYLSEDGETSDHQMNHSMDAGSPNLSPNPMSPAHNNLDLQPVTYCEPAFWCSISYAELNQRVGETFHASQPSMTVDGFTDPSNSERFCLGLLSNVNRNAAVELTRRHIGRGVRLYYIGGEVFAECLSDSAIFVQSPNCNQRYGWHPATVCKIPPGCNLKIFNNQEFAALLAQSVNQGFEAVYQLTRMCTIRMSFVKGWGAEYRRQTVTSTPCWIELHLNGPLQWLDKVLTQMGSPSIRCSSVS
178	41	Renilla luciferase-Smad3 Y384A (natural protein, UniProt P84022 1-425, looked up, Smad3; source: HEK-293, transfected together with constitutively active Alk5, in lysate) MSSILPFTPPIVKRLLGWKKGEQNGQEEKWCEKAVKSLVKKLKKTGQLDELEKAITTQNVNTKCITIPRSLDGRLQVSHRKGLPHVIYCRLWRWPDLHSHHELRAMELCEFAFNMKKDEVCVNPYHYQRVETPVLPPVLVPRHTEIPAEFPPLDDYSHSIPENTNFPAGIEPQSNIPETPPPGYLSEDGETSDHQMNHSMDAGSPNLSPNPMSPAHNNLDLQPVTYCEPAFWCSISYYELNQRVGETFHASQPSMTVDGFTDPSNSERFCLGLLSNVNRNAAVELTRRHIGRGVRLYYIGGEVFAECLSDSAIFVQSPNCNQRYGWHPATVCKIPPGCNLKIFNNQEFAALLAQSVNQGFEAVYQLTRMCTIRMSFVKGWGAEARRQTVTSTPCWIELHLNGPLQWLDKVLTQMGSPSIRCSSVS
120	32	Renilla luciferase-Smad3 R292A (natural protein, UniProt P84022 1-425, looked up, Smad3; source: HEK-293, transfected together with constitutively active Alk5, in lysate) MSSILPFTPPIVKRLLGWKKGEQNGQEEKWCEKAVKSLVKKLKKTGQLDELEKAITTQNVNTKCITIPRSLDGRLQVSHRKGLPHVIYCRLWRWPDLHSHHELRAMELCEFAFNMKKDEVCVNPYHYQRVETPVLPPVLVPRHTEIPAEFPPLDDYSHSIPENTNFPAGIEPQSNIPETPPPGYLSEDGETSDHQMNHSMDAGSPNLSPNPMSPAHNNLDLQPVTYCEPAFWCSISYYELNQRVGETFHASQPSMTVDGFTDPSNSERFCLGLLSNVNRNAAVELTRRHIGAGVRLYYIGGEVFAECLSDSAIFVQSPNCNQRYGWHPATVCKIPPGCNLKIFNNQEFAALLAQSVNQGFEAVYQLTRMCTIRMSFVKGWGAEYRRQTVTSTPCWIELHLNGPLQWLDKVLTQMGSPSIRCSSVS
